Results on three proteins are retold here after patent US6033823A, “Mutated penicillin G acylase genes” (priority 1994, dated 2000).

Common to all, as to type: biochemical, Alcaligenes faecalis
Substrate in data set [1]: CC1(C)S[C@@H]2[C@H](NC(=O)Cc3ccccc3)C(=O)N2[C@H]1C(=O)O
As to the kind of experiment: Deacylation kinetics and phenylacetic acid product inhibition, wild type PenG acylase. Particulars: other: wild type; 40 mM NaH2PO4, pH 7.5, 37° C.; pH 7.5; 37.0 °C. Here is the method:
(§1) In order to determine enzymatic activity the acylases were incubated with substrate at room temperature in buffered solution. In case β-lactamase impurity was expected to be present in the enzyme preparations, 1.0 mM -lactamase inhibitor 6-bromo-penicillanic acid was added to the assay. The reactions were stopped by adding an excess PMSF. For some mutants which were less sensitive to PMSF inhibition, the reactions were stopped by adding 0.5 M HCl or 0.5 M acetic acid until the pH was between 3 and 4. When reactions were subsequently analysed by HPLC, the reactions were stopped by dilution with the correponding elution solvent (see table 1). In addition substrates were incubated under assay conditions in absence of enzyme. If necessary enzyme assays were corrected for non-enzymatic hydrolysis
(§2) The composition of the reaction mixtures was determined by high-performanceliquid chromatography (HPLC)(table 1). Concentrations were determined by using standards of known concentration.
(§3) In a continuous assay Penicillin G acylase was assayed spectro-fotometrically with the chromogenic substrate NIPAB [6-nitro-3-phenylacetamido-benzoic acid]. The liberation of 3-amino-6-nitrobenzoic acid was monitored by measuring the extinction at 405 nm in a Kontron 610 kinetic spectrofotometer. […] Initial rate measurements were performed with varying concentration of NIPAB.
(§4) The kinetics of enzymatic hydrolysis of PenG, PenV, CefG were also studied by alkaline titration (0, OlM KOH), using a Radiometer pH-stat. All experiments were carried out in a buffer free medium.
(§5) Initial rate measurements were performed with excess substrate over the enzyme. Catalytic parameters were derived from least-squares fitting of the measured initial rates plotted for various substrate concentrations according to the Michaelis-Menten equation.
(§6) The complete conversion of NIPAB was followed as a funtion of time at 20, 50 and 100 μM NIPAB by following the increase in absorbtion at 405 nm. Products of this conversion are phenylacetic acid and 3-amino-6-nitrobenzoic acid. […] The progress curves of the deacylation of NIPAB could be fitted very well when product inhibition by phenylacetic acid was taken into account. The dissociation constants (usually referred to as inhibition constant Ki) for phenylacetic acid which could be derived from the progress curves is shown in table 11. For these mutants the yield of the conversion in a fixed time span is higher than for wild type. Alternatively, in order to obtain a certain yield a shorter conversion time is needed for the mutants.

Substrate in data set [2]: CC1=C(C(=O)O)N2C(=O)[C@@H](NC(=O)Cc3ccccc3)[C@H]2SC1
The description is as above. Particulars: other: wild type; 20 mM NaH2PO4, pH 7.5, 37° C.; pH 7.5; 37.0 °C. Here is the method:
as §1, §2, §3, §4, §5, §6

Substrate in data set [3]: CC1(C)S[C@@H]2[C@H](NC(=O)[C@H](N)c3ccc(O)cc3)C(=O)N2[C@H]1C(=O)O
The description is as above. Particulars: other: wild type; 20 mM NaH2PO4, pH 7.0, 37° C.; pH 7.0; 37.0 °C. The protocol:
as §1, §2, §3, §4, §5, §6

Substrate in data set [4]: CC1(C)S[C@@H]2[C@H](NC(=O)[C@H](N)c3ccccc3)C(=O)N2[C@H]1C(=O)O
The data set is described as above. Particulars: other: wild type; 20 mM NaH2PO4, pH 7.0, 37° C.; pH 7.0; 37.0 °C. Here is the method:
as §1, §2, §3, §4, §5, §6

Substrate in data set [5]: NC(=O)[C@H](N)c1ccccc1
The data set is described as above. Particulars: other: wild type; 20 mM NaH2PO4, pH 7.0, 37° C.; pH 7.0; 37.0 °C. Here is the method:
as §1, §2, §3, §4, §5, §6

Substrate in data set [6]: O=C(Cc1ccccc1)Nc1ccc([N+](=O)[O-])c(C(=O)O)c1
Described as above. Particulars: other: wild type; 0.1M NaH2PO4, pH 7.5, 25° C.; pH 7.5; 25.0 °C. The protocol:
as §1, §2, §3, §4, §5, §6

Substrate in data set [7]: CC1(C)S[C@@H]2[C@H](NC(=O)COc3ccccc3)C(=O)N2[C@H]1C(=O)O
The data set is described as above. Particulars: other: wild type; 40 mM NaH2PO4, pH 7.5, 37° C.; pH 7.5; 37.0 °C. Here is the method: as §1, §2, §3, §4, §5, §6

Substrate in data set [8]: CC1(C)S[C@@H]2[C@H](NC(=O)Cc3ccccc3)C(=O)N2[C@H]1C(=O)O
As to the kind of experiment: Deacylation kinetics and phenylacetic acid product inhibition, mutant A:M143V. Particulars: other: A:M143V; 40 mM NaH2PO4, pH 7.5, 37° C.; pH 7.5; 37.0 °C. Here is the method: as §1, §2
(§7) In a continuous assay Penicillin G acylase was assayed spectro-fotometrically with the chromogenic substrate NIPAB [6-nitro-3-phenylacetamido-benzoic acid]. The liberation of 3-amino-6-nitrobenzoic acid was monitored by measuring the extinction at 405 nm in a Kontron 610 kinetic spectrofotometer. […] Initial rate measurements were performed with varying concentration of NIPAB. […]
as §5, §6

Substrate in data set [9]: CC1=C(C(=O)O)N2C(=O)[C@@H](NC(=O)Cc3ccccc3)[C@H]2SC1
The data set is described as above. Particulars: other: A:M143V; 20 mM NaH2PO4, pH 7.5, 37° C.; pH 7.5; 37.0 °C. The protocol: as §1, §2, §7, §5, §6

Substrate in data set [10]: CC1(C)S[C@@H]2[C@H](NC(=O)[C@H](N)c3ccc(O)cc3)C(=O)N2[C@H]1C(=O)O
The description is as above. Particulars: other: A:M143V; 20 mM NaH2PO4, pH 7.0, 37° C.; pH 7.0; 37.0 °C. Here is the method: as §1, §2, §7, §5, §6

Substrate in data set [11]: CC1(C)S[C@@H]2[C@H](NC(=O)[C@H](N)c3ccccc3)C(=O)N2[C@H]1C(=O)O
The description is as above. Particulars: other: A:M143V; 20 mM NaH2PO4, pH 7.0, 37° C.; pH 7.0; 37.0 °C. Here is the method:
as §1, §2, §7, §5, §6

Substrate in data set [12]: NC(=O)[C@H](N)c1ccccc1
The description is as above. Particulars: other: A:M143V; 20 mM NaH2PO4, pH 7.0, 37° C.; pH 7.0; 37.0 °C. The protocol: as §1, §2, §7, §5, §6

Substrate in data set [13]: O=C(Cc1ccccc1)Nc1ccc([N+](=O)[O-])c(C(=O)O)c1
Described as above. Particulars: other: A:M143V; 0.1M NaH2PO4, pH 7.5, 25° C.; pH 7.5; 25.0 °C. The protocol: as §1, §2, §7, §5, §6

Substrate in data set [14]: CC1(C)S[C@@H]2[C@H](NC(=O)COc3ccccc3)C(=O)N2[C@H]1C(=O)O
The data set is described as above. Particulars: other: A:M143V; 40 mM NaH2PO4, pH 7.5, 37° C.; pH 7.5; 37.0 °C. Here is the method: as §1, §2, §7, §5, §6

Substrate in data set [15]: CC1(C)S[C@@H]2[C@H](NC(=O)Cc3ccccc3)C(=O)N2[C@H]1C(=O)O
Nature of the data set: Deacylation kinetics and phenylacetic acid product inhibition, mutant B:L56K. Particulars: other: B:L56K; 40 mM NaH2PO4, pH 7.5, 37° C.; pH 7.5; 37.0 °C. Here is the method: as §1, §2, §7, §5, §6

Substrate in data set [16]: CC1=C(C(=O)O)N2C(=O)[C@@H](NC(=O)Cc3ccccc3)[C@H]2SC1
Described as above. Particulars: other: B:L56K; 20 mM NaH2PO4, pH 7.5, 37° C.; pH 7.5; 37.0 °C. The protocol:
as §1, §2, §7, §5, §6

Substrate in data set [17]: CC1(C)S[C@@H]2[C@H](NC(=O)[C@H](N)c3ccccc3)C(=O)N2[C@H]1C(=O)O
The data set is described as above. Particulars: other: B:L56K; 20 mM NaH2PO4, pH 7.0, 37° C.; pH 7.0; 37.0 °C. Here is the method: as §1, §2, §7, §5, §6

Substrate in data set [18]: NC(=O)[C@H](N)c1ccccc1
The data set is described as above. Particulars: other: B:L56K; 20 mM NaH2PO4, pH 7.0, 37° C.; pH 7.0; 37.0 °C. The protocol: as §1, §2, §7, §5, §6

Substrate in data set [19]: O=C(Cc1ccccc1)Nc1ccc([N+](=O)[O-])c(C(=O)O)c1
Described as above. Particulars: other: B:L56K; 0.1M NaH2PO4, pH 7.5, 25° C.; pH 7.5; 25.0 °C. Here is the method:
as §1, §2, §7, §5, §6

Substrate in data set [20]: CC1(C)S[C@@H]2[C@H](NC(=O)COc3ccccc3)C(=O)N2[C@H]1C(=O)O
The data set is described as above. Particulars: other: B:L56K; 40 mM NaH2PO4, pH 7.5, 37° C.; pH 7.5; 37.0 °C. The protocol: as §1, §2, §7, §5, §6

Positions count from the first letter of the chain named. In names and notes the source's numbering stands.

Broadly, the Km is the concentration of substrate that gives half-maximal velocity.

B1: Alcaligenes faecalis Penicillin G acylase, wild type (α subunit SEQ ID NO:27, β subunit SEQ ID NO:32) (Alcaligenes faecalis) (protein)
chain 1: QVQSVEVMRDSYGVPHVFADSHYGLYYGYGYAVAQDRLFQMDMARRSFVGTTAAVLGPGEQDAYVKYDMQVRQNFTPASIQRQIAALSKDERDIFRGYADGYNAYLEQVRRRPELLPKEYVDFDFQPEPLTDFDVVMIWVGSMANRFSDTNLEVTALAMRQSLEKQHGPERGRALFDELLWINDTTAPTTVPAPAAEHKPQA
chain 2: SNLWSTRPERVQEGSTVLINGPQFGWYNPAYTYGIGLHGAGFDVVGNTPFAYPIVLFGTNSEIAWGATAGPQDVVDIYQEKLNPSRADQYWFNNAWRTMEQRKERIQVRGQADREMTIWRTVHGPVMQFDYDQGAAYSKKRSWDGYEVQSLLAWLNVAKARNWTEFLDQASKMAISINWYYADKHGNIGYVSPAFLPQRPADQDIRVPAKGDGSMEWLGIKSFDAIPKAYNPPQGYLVNWNNKPAPDKTNTDTYYWTYGDRMNELVSQYQQKDLFSVQEIWEFNQKASYSDVNWRYFRPHLEKLAQQLPADDSSKAALTMLLAWDGMEQDQGGQNAGPARVLFKTWLEEMYKQVLMPVVPESHRAMYSQTGFATQQGPNPGSINLSMGTKVLLRALVLEAHPDPKRVNVFGERSSQEIMHTALQNAQARLSQEQGAQMARWTMPTSVHRFSDKNFTGTPQTMPGNTFAFTGYQNRGTENNRVVFDAKGVEFCDAMPPGQSGFTDRNGVRSPHYEDQLKLYENFECKTMDVTHADIRRNAQSSTMLLIQPQP
notes: alpha 202 aa, beta 551 aa; likely recombinant, E. coli host
In the case of B1, the Km in data set [1] was found to be 2 µM; in [2], 1 µM; in data set [3], 14 mM; in data set [4], 700 µM; in [5], 8.6 mM; in data set [6] it was 4 µM. Moreover, in data set [7], the Km stood at 18 µM. Also, the Vmax in data set [1] is on record as 45.5 U/mg; in [2], 12.5 U/mg; in data set [3], “.9 U/mg”; in data set [4] it was 23.5 U/mg; in [5], 27.5 U/mg; in [6], 37.0 U/mg. For the same protein, the Vmax in data set [7] turned out to be 4.0 U/mg.

B2: Alcaligenes faecalis Penicillin G acylase mutant A:M143V (Alcaligenes faecalis; M169V) (protein)
chain 1: B1 chain 1 with M143V
chain 2: B1 chain 2
notes: alpha 202 aa, beta 551 aa; recombinant, E. coli host
For the protein B2, the Km in data set [8] stood at 6 µM; in [9], 7 µM; in [10] it was 21 mM; in data set [11], 1500 µM; in data set [12] it was 35 mM; in [13] it was 17 µM. Further, in data set [14], the Michaelis-Menten constant (Km) is 31 µM. In addition, the Vmax in data set [8] is on record as 40.5 U/mg; in data set [9], 56.4 U/mg; in data set [10], “.2 U/mg”; in [11], 23.0 U/mg; in data set [12] it was 22.2 U/mg; in data set [13], 35.7 U/mg. In addition, the Vmax in data set [14] is recorded as 10.3 U/mg.

B3: Alcaligenes faecalis Penicillin G acylase mutant B:L56K (Alcaligenes faecalis; L321K) (protein)
chain 1: B1 chain 1
chain 2: B1 chain 2 with L56K
notes: as for B2
As to B3, the Km in [15] is 1 µM; in data set [16], 10 µM; in data set [17], 1700 µM; in data set [18], 49 mM; in data set [19], 28 µM; in [20], 35 µM. The Vmax in data set [15] was found to be 36.4 U/mg; in data set [16], 25.5 U/mg; in data set [17], 20.9 U/mg; in [18], 18.2 U/mg; in data set [19] it was 47.3 U/mg; in [20], 15.5 U/mg.
